Experimental data as given in US20210246206A1 (Stanford University, published 2021).

B1: chimeric 5F9 antibody (antibody, V domains shown)
VH: QVQLQQPGAELVKPGASVMMSCKASGYTFTNYNMHWVKQTPGQGLEWIGTIYPGNDDTSYNQKFKDKATLTADKSSSAAYMQLSSLTSEDSAVYYCARGGYRAMDYWGQGTSVTVSS
VL: DVLMTQTPLSLPVSLGDQASISCRSSQSIVYSNGNTYLGWYLQKPGQSPKLLIYKVSNRFSGVPDRFSGSGSGTDFTLKISRVEAEDLGVYHCFQGSHVPYTFGGGTKVEIK
notes: Mouse 5F9 variable regions in a chimeric native IgG; detection was with anti-human kappa
B2: chimeric 8B6 antibody (antibody, V domains shown)
VH: EVQLQQSGPELVKPGASVKMSCKASGYTFTTYVVHWVKQTPGQGLEWIGYINPYNDGTKYNEKFKGKATLTSDKSSSTAYMEFSSLTSEDSAVYYCVRGYYRYGYTMDYWGQGTSVTVSS
VL: DIVMTQSPATLSVTPGDRVSLSCRASQNFSDYLHWYQQKSHESPRLLIKYVSHSISGIPSRFSGSGSGSDFTLSINSVEPEDVGVYYCQNGHSFPPTFGGGTKLEIK
notes: Mouse 8B6 variable regions in a chimeric native IgG; detection was with anti-human kappa

Biological target: T1, purified human CD47-Fc fusion protein (human, UniProt Q08722 19-139, limits assumed)
T1 construct: Coated on ELISA plates at 1.0 ug/ml; also called soluble CD47; human CD47 soluble protein; not shown: Fc part
T1 sequence (Q08722 19-139 limits assumed): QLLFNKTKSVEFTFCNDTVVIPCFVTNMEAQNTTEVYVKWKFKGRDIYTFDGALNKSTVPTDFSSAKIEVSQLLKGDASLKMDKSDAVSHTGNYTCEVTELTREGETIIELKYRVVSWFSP
Assay: ELISA on coated human CD47 soluble protein (FIG. 11)

| Binder | binding result |
| --- | --- |
| B1 | binds |
| B2 | binds |
